Reference: US20260049134A1 (UNIVERSITY OF FLORIDA RESEARCH FOUNDATION, published 2026)

T1: SELL (L-Selectin)
T1 construct: coated protein in the ELISA; also called SELL-Fc-His (R&D Systems)
T1 chain: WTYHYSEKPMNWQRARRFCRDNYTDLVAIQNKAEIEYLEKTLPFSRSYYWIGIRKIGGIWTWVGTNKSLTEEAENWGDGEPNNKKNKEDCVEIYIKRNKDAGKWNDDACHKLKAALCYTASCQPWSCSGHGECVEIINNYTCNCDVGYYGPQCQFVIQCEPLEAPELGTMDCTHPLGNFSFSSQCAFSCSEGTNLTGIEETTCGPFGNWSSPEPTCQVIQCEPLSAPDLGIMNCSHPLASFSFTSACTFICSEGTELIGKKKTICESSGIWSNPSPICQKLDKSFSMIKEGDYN

T2: GARS, endogenous in H929 multiple myeloma cells (human, UniProt P41250 37-739, limits assumed)
T2 construct: Native protein pulled down from H929 lysates; also called Glycyl-tRNA synthetase; GlyRS
T2 sequence: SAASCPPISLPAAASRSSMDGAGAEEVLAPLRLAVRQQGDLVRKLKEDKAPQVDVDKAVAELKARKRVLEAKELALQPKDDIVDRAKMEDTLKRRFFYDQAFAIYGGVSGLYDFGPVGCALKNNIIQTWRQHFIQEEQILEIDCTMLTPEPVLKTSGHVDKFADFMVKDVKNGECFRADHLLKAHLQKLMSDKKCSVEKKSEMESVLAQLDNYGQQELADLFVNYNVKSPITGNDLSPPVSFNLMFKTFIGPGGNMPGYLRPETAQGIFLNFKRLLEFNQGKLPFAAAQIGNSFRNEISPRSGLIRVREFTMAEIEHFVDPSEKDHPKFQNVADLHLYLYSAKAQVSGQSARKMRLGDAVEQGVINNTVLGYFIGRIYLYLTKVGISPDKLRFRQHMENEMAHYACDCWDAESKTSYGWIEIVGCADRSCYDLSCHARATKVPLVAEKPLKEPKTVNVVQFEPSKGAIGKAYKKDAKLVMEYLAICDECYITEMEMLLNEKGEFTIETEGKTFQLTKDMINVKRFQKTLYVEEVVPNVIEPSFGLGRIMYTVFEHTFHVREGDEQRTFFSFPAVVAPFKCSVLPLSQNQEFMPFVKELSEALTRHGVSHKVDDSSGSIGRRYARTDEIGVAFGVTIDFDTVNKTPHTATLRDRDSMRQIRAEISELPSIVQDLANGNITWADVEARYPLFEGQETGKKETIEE


Tests used:
[1] = target: T3, ICAM1-Fc (R&D Systems) (human, UniProt P05362 28-480); assay: ELISA on coated ICAM1-Fc
T3 construct: Bought; also called ICAM-1/CD54; not shown: Fc of the bought fusion protein
T3 sequence (P05362 28-480): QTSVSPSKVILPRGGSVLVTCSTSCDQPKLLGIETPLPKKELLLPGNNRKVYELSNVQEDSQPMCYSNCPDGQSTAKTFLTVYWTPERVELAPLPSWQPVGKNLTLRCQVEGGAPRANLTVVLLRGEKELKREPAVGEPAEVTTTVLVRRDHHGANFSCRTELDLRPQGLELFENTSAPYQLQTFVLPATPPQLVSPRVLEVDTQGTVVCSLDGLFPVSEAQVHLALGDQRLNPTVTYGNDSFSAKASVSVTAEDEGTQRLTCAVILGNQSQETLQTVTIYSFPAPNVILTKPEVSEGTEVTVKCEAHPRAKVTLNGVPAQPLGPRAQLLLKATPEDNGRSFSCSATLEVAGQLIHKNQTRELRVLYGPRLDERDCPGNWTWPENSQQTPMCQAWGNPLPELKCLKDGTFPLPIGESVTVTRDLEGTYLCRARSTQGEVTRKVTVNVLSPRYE
Protocol: (§1) Recombinant purified ECDs (50-150 ng) of each putative target protein were coated, incubated with 150 ng of the indicated primary antibody, and binding was detected using a peroxidase-conjugated anti-human Fab secondary antibody. Heatmap represents averages of technical triplicates. (8B) Target validation via siRNA knockdown. H929 cells were transfected with siRNA pools targeting the putative antibody targets ICAM1, CADM1, and PTPRG. Cells were then subjected to cognate IgG binding analysis via flow cytometry. (NT, non-targeting siRNA).
(§2) ELISA ELISA was conducted as described previously. Briefly, 50-150 ng of antigen was coated overnight in half-area 96-well plates at 4° C., blocked with 3% BSA at 37° C. for 1 h, and 150 ng of chimeric rabbit/human IgG1 was added, incubating for 2 h at 37° C. […] After incubating at 37° C. for 15 min-1 h (depending on intensity of controls), data were acquired using a SpectraMax M5 plate reader (Molecular Devices).

[2] = target: T4, PTPRG, endogenous in H929 multiple myeloma cells (human, UniProt P23470 20-1445); assay: flow cytometry, H929 + NT Green siRNA; None 1.35
T4 construct: Native protein on H929 cells (flow cytometry, siRNA knockdown) and in H929 lysates (IP/MS); also called phosphatase receptor type γ
T4 sequence (P23470 20-1445 limits assumed): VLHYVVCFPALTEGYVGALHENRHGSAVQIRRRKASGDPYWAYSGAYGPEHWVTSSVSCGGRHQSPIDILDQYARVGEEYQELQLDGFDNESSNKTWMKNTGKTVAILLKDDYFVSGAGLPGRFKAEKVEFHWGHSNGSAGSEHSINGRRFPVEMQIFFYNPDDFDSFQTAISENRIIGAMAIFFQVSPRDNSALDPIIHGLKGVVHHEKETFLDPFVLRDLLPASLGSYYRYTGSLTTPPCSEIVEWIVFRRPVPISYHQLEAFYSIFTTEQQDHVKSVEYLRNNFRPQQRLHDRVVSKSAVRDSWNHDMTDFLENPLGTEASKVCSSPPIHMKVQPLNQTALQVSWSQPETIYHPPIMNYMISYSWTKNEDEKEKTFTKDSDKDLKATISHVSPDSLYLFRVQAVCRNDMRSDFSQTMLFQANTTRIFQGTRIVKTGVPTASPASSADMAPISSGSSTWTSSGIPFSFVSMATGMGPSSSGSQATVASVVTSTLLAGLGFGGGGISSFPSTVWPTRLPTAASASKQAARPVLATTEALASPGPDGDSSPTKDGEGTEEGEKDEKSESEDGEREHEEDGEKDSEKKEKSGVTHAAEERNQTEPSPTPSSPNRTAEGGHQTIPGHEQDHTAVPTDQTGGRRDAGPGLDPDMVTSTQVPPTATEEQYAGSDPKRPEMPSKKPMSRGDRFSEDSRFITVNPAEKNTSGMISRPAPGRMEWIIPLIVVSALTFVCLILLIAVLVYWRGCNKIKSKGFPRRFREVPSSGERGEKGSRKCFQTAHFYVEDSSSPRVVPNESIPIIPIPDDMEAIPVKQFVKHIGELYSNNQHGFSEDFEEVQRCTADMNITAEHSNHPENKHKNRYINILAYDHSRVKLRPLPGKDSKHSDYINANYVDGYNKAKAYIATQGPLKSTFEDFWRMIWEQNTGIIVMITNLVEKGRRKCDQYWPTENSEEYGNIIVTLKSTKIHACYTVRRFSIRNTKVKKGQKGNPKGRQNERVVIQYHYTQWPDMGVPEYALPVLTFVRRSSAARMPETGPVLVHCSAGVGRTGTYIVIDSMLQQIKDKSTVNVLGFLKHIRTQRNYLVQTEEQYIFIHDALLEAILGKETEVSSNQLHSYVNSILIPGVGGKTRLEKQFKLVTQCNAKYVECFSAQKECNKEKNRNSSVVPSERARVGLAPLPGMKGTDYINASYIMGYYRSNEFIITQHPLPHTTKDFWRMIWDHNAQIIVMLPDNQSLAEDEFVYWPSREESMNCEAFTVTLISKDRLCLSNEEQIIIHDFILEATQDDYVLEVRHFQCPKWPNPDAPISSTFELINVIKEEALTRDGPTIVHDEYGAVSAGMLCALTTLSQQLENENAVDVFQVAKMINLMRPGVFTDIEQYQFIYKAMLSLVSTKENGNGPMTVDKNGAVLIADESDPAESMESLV

[3] = target: T4, PTPRG, endogenous in H929 multiple …; assay: flow cytometry, H929 + vehicle; None 2.74
[4] = target: T4, PTPRG, endogenous in H929 multiple …; assay: flow cytometry, H929 + vehicle; None 513
[5] = target: T1, SELL (L-Selectin); assay: ELISA on coated SELL-Fc-His
Protocol: as §1, §2

[6] = target: T2, GARS, endogenous in H929 multiple …; assay: flow cytometry, H929 + PTPRG siRNA; None 490; surface target GARS putative
[7] = target: T2, GARS, endogenous in H929 multiple …; assay: flow cytometry, H929 + CADM1 siRNA; None 0.89; surface target GARS putative
[8] = target: T2, GARS, endogenous in H929 multiple …; assay: flow cytometry, H929 + CADM1 siRNA; None 449; surface target GARS putative
[9] = target: T2, GARS, endogenous in H929 multiple …; assay: flow cytometry, H929 + NT Green siRNA; None 1.35; surface target GARS putative
[10] = target: T2, GARS, endogenous in H929 multiple …; assay: flow cytometry, H929 + vehicle; None 513; surface target GARS putative
[11] = target: T2, GARS, endogenous in H929 multiple …; assay: flow cytometry, H929 + GARS siRNA (siRNA against the putative target); None 452
[12] = target: T2, GARS, endogenous in H929 multiple …; assay: flow cytometry, H929 + PTPRG siRNA; None 2.13; surface target GARS putative

Binder	Cells stained (%) [2] [%]	Cells stained (%) [3] [%]	mAb binding (MFI) [4]	binding result [1]	binding result [5]	also measured
HW-17 chimeric rabbit-human IgG1 LA/LA/PG (antibody, V domains shown, Fc-silenced (L234A/L235A/P329G) IgG1, lambda; Alexa Fluor 647-labeled in single-step flow cytometry; Cluster C-1) VH: QSLGESRGRLVTPDETLTLTCTVSGIDLSSNAMSWVRQAPGEGLEWIGTINTGGRAYYASWAKGRFTISRTSTTVDLKMTSLTTEDTATYFCARERYSDGRAYDIWGPGTLVTISS VL: SFVLTQPASVQVNLGQTVSLTCTADTLSRRYASWYQQKPGQAPVLLIYTDSNRPSGIPDRFSGSSSGNTATLTISGAQAGDEADYYCATDDGSGSIYQYVFGGGTQLTVTG	99	99.3	15700		no binding (tested: 150 ng IgG1 per well)	
HW-101 chimeric rabbit-human IgG1 LA/LA/PG (antibody, V domains shown, Fc-silenced (L234A/L235A/P329G) IgG1, lambda; Alexa Fluor 647-labeled in single-step flow cytometry; Cluster C-97) VH: QEQLVESGGRLVTPGTPLTLTCKASGFSLGKYDMSWVRQAPGKGLEWIGTIYAGSGSTWYASWAKGRFTISKTSTTVDLKMTSLTTEDTATYFCARDFLGVNSIWGPGTLVTISS VL: SFVLTQPASVQVNLGQTVSLTCTADTLSRSYASWYQQKPDQAPVLLIHRDTSRPSGVPDRFSGSNSGNTATLTISGAQAGDEADYYCATSDGSGSNFHFVFGGGTQLTVTG					no binding (tested: 150 ng IgG1 per well)	
HW-1 chimeric rabbit-human IgG1 LA/LA/PG (antibody, V domains shown, Fc-silenced (L234A/L235A/P329G) IgG1, lambda; Alexa Fluor 647-labeled in single-step flow cytometry; Prototype of cluster C-1) VH: QSLEESGGGLFKPTDTLTLTCTASGFSLGSSYAISWVRQAPGKELEWIGTIDSGRAYYARWAKSRSTITRNTNENTVTLKMTSLTAADTATYFCARDLIPTYSQDIWGPGTLVTISS VL: SFVLTQPASVQVNLGQTVSLTCTADTLSRRYASWYQQKPGQAPVLLIYRDTSRPSGVPDRFSGSSSGNTATLTISGAQAGDEADYYCATSDGSGNSYQYVFGGGTQLTVTS	99.4	99.4	15000		no binding (tested: 150 ng IgG1 per well)	
HW-45 chimeric rabbit-human IgG1 LA/LA/PG (antibody, V domains shown, Fc-silenced (L234A/L235A/P329G) IgG1, lambda; Alexa Fluor 647-labeled in single-step flow cytometry; Prototype of cluster C-45) VH: QKQLVESGGRLVTPGTPLTLTCTVSGFSLSSYAMGWFRQAPGKGLEWIGIINSYGSTYYASWAKGRFTISKTSTTVDLKITSPTTEDTATYFCGRRIGSARFDPWGPGTLVTVSS VL: SFVLTQPASVQVNLGQTVSLTCTADTLSRSYASWYQQKPGQAPVLLIYRDTRRPSGVPDRFSGSSSGNTATLTISGAQAGDEADYYCATSDGSGSSYRLVFGGGTQLTVTG						mAb binding (MFI) [6]: 23200; Cells stained (%) [7]: 97%; mAb binding (MFI) [8]: 33400; Cells stained (%) [9]: 97.9%; mAb binding (MFI) [10]: 25400; mAb binding (MFI) [11]: 76900; Cells stained (%) [12]: 97.3%
HW-97 chimeric rabbit-human IgG1 LA/LA/PG (antibody, V domains shown, Fc-silenced (L234A/L235A/P329G) IgG1, lambda; Alexa Fluor 647-labeled in single-step flow cytometry; Prototype of cluster C-97) VH: QKQLVESGGRLVTPGTPLTLTCTVTGIDLSSHGMSWVRQAPGKGLEWIGVIYPSGSTWYASWARGRFTISKTSTTVDLKMTSLTTEDTATHFCARGDVGGADNNIWGPGTLVTVSS VL: SFVLTQPASVQVDLGQTVSLTCTAETLSRSYASWYQQKPGQAPVLLIYRDTSRPSGVPDRFSGSSSGNTATLTISGAQAGDEADYYCATSDGSGSSYQYVFGGGTQLTVTG					no binding (tested: 150 ng IgG1 per well)	
HW-113 chimeric rabbit-human IgG1 LA/LA/PG (antibody, V domains shown, Fc-silenced (L234A/L235A/P329G) IgG1, lambda; Alexa Fluor 647-labeled in single-step flow cytometry) VH: QKQLVESGGGLVQPGGSLTLTCTVSGFSLNKYYMGWFRQAPGKGLEWIGVISRSGDTYYSSWAKGRFTISKASTTVDLRITSPTTEDTATYFCARDASSPGFHGDRLDLWGQGTLVTVSS VL: SFVLTQPASVQVNLGQTVSLTCTADTLSRSYASWYQQKPGQAPVLLIYRDTSRPSGVPDRFSGSSSGNTATLTISGAQAGDEADYYCATSDGIGSNYLWVFGGGTQLTVTG					no binding (tested: 150 ng IgG1 per well)	

More lines, main results first:

Cells stained (%) [2] [%]	Cells stained (%) [3] [%]	mAb binding (MFI) [4]	Binder	binding result [1]	binding result [5]	also measured
97.2	97.5	8320	HW-42 chimeric rabbit-human IgG1 LA/LA/PG (antibody, V domains shown, Fc-silenced (L234A/L235A/P329G) IgG1, lambda; Alexa Fluor 647-labeled in single-step flow cytometry; Cluster C-1) VH: QSVKESEGGLFKPADTLTLTCTVSGFSLSSNEISWVRQAPGEGLEYIGIIDTGGRAYYAVWARSRSTITRNTNLNTVTLKMTSLTAADTATYFCARGGVDTEWYAFSSWGPGTLVTVPS VL: SFVLTQPASVQVNLGQTVSLTCTADTLSRRYASWYQQKPGQAPVLLIFRDTSRPSGVPDRFSGSSSGDTATLTISGAQAGDEADYYCATSDGSGSNYQYVFGGGTQLTVTG	no binding (tested: 150 ng IgG1 per well)	no binding (tested: 150 ng IgG1 per well)	
95.7	97.2	7560	HW-25 chimeric rabbit-human IgG1 LA/LA/PG (antibody, V domains shown, Fc-silenced (L234A/L235A/P329G) IgG1, lambda; Alexa Fluor 647-labeled in single-step flow cytometry; Cluster C-1) VH: QSLEESGGRLVTPGTPLTLTCTVSGFSLSSYAMGWVRQAPGKGLEWIGIIDSRGSTYYATWAKGRFTISKTSTTVDLKITSPTTEDTATYFCAREDSYYYDSFNLWGPGTLVTVSS VL: SFVLTQPASVQVNLGQTVSLTCTADTLSRRYASWYQQKPGQAPVLLIYRDTSRPSGVPDRFSGSSSGNTATLTISGAQAGDEADYYCATSDGSGSSYQCVFGGGTQLTVTG	no binding (tested: 150 ng IgG1 per well)	no binding (tested: 150 ng IgG1 per well)	
98.9	98.6	12300	HW-70 chimeric rabbit-human IgG1 LA/LA/PG (antibody, V domains shown, Fc-silenced (L234A/L235A/P329G) IgG1, lambda; Alexa Fluor 647-labeled in single-step flow cytometry; Cluster C-1) VH: QSLEESGGRLVTPGTPLTLTCTVSGFSLSSNAMSWVRQAPGKGLEWIGTIDGYGYTYYASWAKGRFTVSKTSTTVDLKITSPTTEDTATYFCAREIYLGSNFWGPGTLVTISS VL: SFVLTQPASVQVNLGQTVSLTCTADTLSRRYASWYQQKPGQAPVLLIYRDTSRPSGVPDRFSGSSSGNTATLTISGAQAGDEADYYCATADGSGSSYQFVFGGGTQLTVTG	no binding (tested: 150 ng IgG1 per well)	no binding (tested: 150 ng IgG1 per well)	
1.86	2.62	595	TH9-0022 (antibody, human IgG1, kappa, L234A L235A, V domains shown, also called TH9-022; negative control) VH: QSLEESGGRLVTPGTPLTLTCTVSGFSLSSYAMNWVRQAPGKGLEWIGIINSYGSTYYASWAKGRFTISKTSTTVDLKITSPTTEDTATYFCARVTYDSYGYGYAPYGMDLWGPGTLVTVSS VL: LVMTQTPSSTSNAVGGTVTIKCQASQSIGNVLAWYQQKPGQPPKLLIYAASTLASGVPSRVGGSRSGTEYTLTISGVQREDAATYYCLGSDSDSDIAFGGGTELEILR	no binding (tested: 150 ng IgG1 per well)	no binding (tested: 150 ng IgG1 per well)	
